3 molecules from patent US20240368250A1 (Ablynx, published 2024) can be followed below.

A word on the koff: it is the rate constant with which the complex falls apart. High values mean fast dissociation, low ones slow dissociation. A word on the kon: it is a measure of how fast the partners come together.

Assay [1] has as its target T1, Human FcRn (biotinylated human FcRn) (human, UniProt P61769 21-119).
T1 construct: Biotinylated human FcRn captured on a Series S Sensor Chip SA; also called human neonatal Fc receptor; hFcRn
The assay is described as follows: SPR Biacore 8K+, biotinylated hFcRn on SA chip (~1000-2000 RU), pH 6.0, with 30 uM HSA, bivalent analyte fit (KD1). A general note: Surface plasmon resonance follows binding to a sensor surface in real time, without labels.

In assay [2] the target is T1, Human FcRn (biotinylated human FcRn). The assay is described as follows: SPR Biacore 8K+, biotinylated hFcRn on SA chip (~1000-2000 RU), pH 6.0, no HSA, 1:1 fit.
The target is the same in assay [3]. The assay is described as follows: SPR Biacore 8K+, biotinylated hFcRn on SA chip (~600 RU), pH 6.0, bivalent analyte fit (kd1).
Assay [4] shares this target. In words: SPR Biacore 8K+, biotinylated hFcRn on SA chip (~1000-2000 RU), pH 6.0, no HSA, bivalent analyte fit.
Assay [5] shares this target. The assay is described as follows: SPR Biacore 8K+, biotinylated hFcRn on SA chip (~1000-2000 RU), pH 6.0, with 30 uM HSA, bivalent analyte fit (ka1).
Assay [6] concerns the target T2, Mouse serum albumin (MSA; Albumin Bioscience Cat No. 2601) (mouse, UniProt P07724 25-608). In words: SPR Biacore 8K+, MSA on CM5 chip, pH 7.4, 1:1 fit.
Assay [7] deals with T1, Human FcRn (biotinylated human FcRn). The assay is described as follows: SPR Biacore 8K+, biotinylated hFcRn on SA chip (~600 RU), pH 6.0, bivalent analyte fit (KD1).
For assay [8] the target is unchanged. In words: SPR Biacore 8K+, biotinylated hFcRn on SA chip (~600 RU), pH 6.0, bivalent analyte fit (ka1).
Assay [9] addresses T3, Human serum albumin (HSA; Sigma-Aldrich Cat No. A8763) (human, UniProt P02768 25-609). In words: SPR Biacore 8K+, HSA on CM5 chip, pH 6.0, 1:1 fit.
Assay [10] addresses T1, Human FcRn (biotinylated human FcRn). The assay is described as follows: SPR Biacore 8K+, biotinylated hFcRn on SA chip (~1000-2000 RU), pH 6.0, no HSA, bivalent analyte fit (KD1).
Assay [11] addresses T2, Mouse serum albumin (MSA; Albumin …). The assay is described as follows: SPR Biacore 8K+, MSA on CM5 chip, pH 6.0, 1:1 fit.
Assay [12] concerns the target T1, Human FcRn (biotinylated human FcRn). In words: SPR Biacore 8K+, biotinylated hFcRn on SA chip (~600 RU), pH 6.0, bivalent analyte fit.
The target is the same in assay [13]. The assay is described as follows: SPR Biacore 8K+, biotinylated hFcRn on SA chip (~1000-2000 RU), pH 6.0, no HSA, bivalent analyte fit (ka1).
Assay [14] shares this target. The assay is described as follows: SPR Biacore 8K+, biotinylated hFcRn on SA chip (~1000-2000 RU), pH 6.0, no HSA, bivalent analyte fit (kd1).
Assay [15] has the same target. In words: SPR Biacore 8K+, biotinylated hFcRn on SA chip (~1000-2000 RU), pH 6.0, with 30 uM HSA, bivalent analyte fit.
The target of assay [16] is T3, Human serum albumin (HSA; Sigma-Aldrich …). The assay is described as follows: SPR Biacore 8K+, HSA on CM5 chip, pH 7.4, 1:1 fit.
Assay [17] addresses T1, Human FcRn (biotinylated human FcRn). In words: SPR Biacore 8K+, biotinylated hFcRn on SA chip (~1000-2000 RU), pH 6.0, with 30 uM HSA, bivalent analyte fit (kd1).

B1: TP009 (Fc fusion)
chain 1: DVQLVESGGGLVQPGGSLRLSCAASGLTFSTNPMYWYRQAPGKQRELVASISSRGITNYADSVKGRFTISRDNSKNTVYLQMNSLRPEDTAVYYCRLASLSSGTVYWGQGTLVTVSSDKTHTCPPCPAPEAAGGPSVFLFPPKPKDTLMISRTPEVTCVVVDVSQEDPEVQFNWYVDGVEVHNAKTKPREEQFNSTYRVVSVLTVLHQDWLNGKEYKCKVSNKGLPSSIEKTISKAKGQPREPQVYTLPPCQEEMTKNQVSLWCLVKGFYPSDIAVEWESNGQPENNYKTTPPVLDSDGSFFLYSKLTVDKSRWQEGNVFSCSVMHEALHNHYTQKSLSLSLG
chain 2: DVQLVESGGGVVQPGGSLRLSCAASGFTFRSFGMSWVRQAPGKGPEWVSSISGSGSDTLYADSVKGRFTISRDNSKNTLYLQMNSLRPEDTALYYCTIGGSLSRSSQGTLVTVSSDKTHTCPPCPAPEAAGGPSVFLFPPKPKDTLMISRTPEVTCVVVDVSQEDPEVQFNWYVDGVEVHNAKTKPREEQFNSTYRVVSVLTVLHQDWLNGKEYKCKVSNKGLPSSIEKTISKAKGQPREPQVCTLPPSQEEMTKNQVSLSCAVKGFYPSDIAVEWESNGQPENNYKTTPPVLDSDGSFFLVSKLTVDKSRWQEGNVFSCSVMHEALHNHYTQKSLSLSLG
notes: IgG4 FALA Fc (knob-in-hole); irrelevant ISVD N-terminal on chain 1, ALB23002 N-terminal on chain 2
Consider B1, for which the Kd in assay [1] turned out to be 23 nM; in assay [2], 3 nM; in [6], 21 nM; in assay [7] it was 15.1 nM; in [9], 2.7 nM; in assay [10], 150 nM. For the same molecule, the Kd turned out to be 13 nM in assay [11] and 6.7 nM in assay [16]. In addition, the dissociation rate constant (koff) in assay [2] is 0.0067 s⁻¹; in assay [3], 0.000344 s⁻¹; in assay [6], 0.0026 s⁻¹; in assay [9], 0.00037 s⁻¹; in [11] it was 0.002 s⁻¹; in [14] it was 0.037 s⁻¹. The koff in assay [16] is 0.0005 s⁻¹; in assay [17] it was 0.0017 s⁻¹. In addition, the on-rate (kon) came to 2.3e+06 M⁻¹ s⁻¹ in assay [2]; 75000 M⁻¹ s⁻¹ in assay [5]; 130000 M⁻¹ s⁻¹ in assay [6]; 22800 M⁻¹ s⁻¹ in [8]; 140000 M⁻¹ s⁻¹ in [9]; 160000 M⁻¹ s⁻¹ in assay [11]. Besides, the kon is 240000 M⁻¹ s⁻¹ in [13] and 75000 M⁻¹ s⁻¹ in [16]. Also, the ka2 is 0.0013 1/RUs in assay [4], 0.917 1/RUs in assay [12] and 0.0074 1/RUs in assay [15]. The figures for the kd2 in [4], in [12] and in assay [15] were 0.018 s⁻¹, 10.2 s⁻¹ and 0.095 s⁻¹, respectively.

B2: TP003 (Fc fusion)
chain 1: DVQLVESGGGLVQPGGSLRLSCAASGLTFSTNPMYWYRQAPGKQRELVASISSRGITNYADSVKGRFTISRDNSKNTVYLQMNSLRPEDTAVYYCRLASLSSGTVYWGQGTLVTVSSDKTHTCPPCPAPEAAGGPSVFLFPPKPKDTLMISRTPEVTCVVVDVSQEDPEVQFNWYVDGVEVHNAKTKPREEQFNSTYRVVSVLTVLHQDWLNGKEYKCKVSNKGLPSSIEKTISKAKGQPREPQVYTLPPCQEEMTKNQVSLWCLVKGFYPSDIAVEWESNGQPENNYKTTPPVLDSDGSFFLYSKLTVDKSRWQEGNVFSCSVMHEALHNHYTQKSLSLSLG
chain 2: DVQLVESGGGLVQPGGSLRLSCAASGLTFSTNPMYWYRQAPGKQRELVASISSRGITNYADSVKGRFTISRDNSKNTVYLQMNSLRPEDTAVYYCRLASLSSGTVYWGQGTLVTVSSDKTHTCPPCPAPEAAGGPSVFLFPPKPKDTLMISRTPEVTCVVVDVSQEDPEVQFNWYVDGVEVHNAKTKPREEQFNSTYRVVSVLTVLHQDWLNGKEYKCKVSNKGLPSSIEKTISKAKGQPREPQVCTLPPSQEEMTKNQVSLSCAVKGFYPSDIAVEWESNGQPENNYKTTPPVLDSDGSFFLVSKLTVDKSRWQEGNVFSCSVMHEALHNHYTQKSLSLSLG
notes: IgG4 FALA Fc (knob-in-hole) with two N-terminal non-targeting ISVDs; also called control ISVD-Fc construct
B2: the Kd in assay [1] stood at 77 nM; in assay [2], 3.6 nM; in assay [7] it was 3.09 nM; in assay [10], 39 nM. The koff in assay [2] was 0.0017 s⁻¹; in assay [3], 0.000238 s⁻¹; in assay [14] it was 0.0098 s⁻¹; in assay [17], 0.036 s⁻¹. In addition, the on-rate (kon) came out at 460000 M⁻¹ s⁻¹ in assay [2], 470000 M⁻¹ s⁻¹ in assay [5], 77000 M⁻¹ s⁻¹ in assay [8] and 250000 M⁻¹ s⁻¹ in assay [13]. Further, the ka2 in assay [4] was 0.15 1/RUs; in [12], 0.011 1/RUs; in assay [15], 100 1/RUs. Moreover, the kd2 was found to be 2.4 s⁻¹ in assay [4], 0.0329 s⁻¹ in [12] and 1900 s⁻¹ in [15].

B3: TP008 (Fc fusion)
chain 1: DVQLVESGGGLVQPGGSLRLSCAASGLTFSTNPMYWYRQAPGKQRELVASISSRGITNYADSVKGRFTISRDNSKNTVYLQMNSLRPEDTAVYYCRLASLSSGTVYWGQGTLVTVSSDKTHTCPPCPAPEAAGGPSVFLFPPKPKDTLMISRTPEVTCVVVDVSQEDPEVQFNWYVDGVEVHNAKTKPREEQFNSTYRVVSVLTVLHQDWLNGKEYKCKVSNKGLPSSIEKTISKAKGQPREPQVYTLPPCQEEMTKNQVSLWCLVKGFYPSDIAVEWESNGQPENNYKTTPPVLDSDGSFFLYSKLTVDKSRWQEGNVFSCSVMHEALHNHYTQKSLSLSLGGGGGSGGGGSGGGGSGGGGSGGGGSGGGGSGGGGSEVQLVESGGGLVQPGGSLRLSCAASGLTFSTNPMYWYRQAPGKQRELVASISSRGITNYADSVKGRFTISRDNSKNTVYLQMNSLRPEDTAVYYCRLASLSSGTVYWGQGTLVTVSS
chain 2: DKTHTCPPCPAPEAAGGPSVFLFPPKPKDTLMISRTPEVTCVVVDVSQEDPEVQFNWYVDGVEVHNAKTKPREEQFNSTYRVVSVLTVLHQDWLNGKEYKCKVSNKGLPSSIEKTISKAKGQPREPQVCTLPPSQEEMTKNQVSLSCAVKGFYPSDIAVEWESNGQPENNYKTTPPVLDSDGSFFLVSKLTVDKSRWQEGNVFSCSVMHEALHNHYTQKSLSLSLG
notes: IgG4 FALA Fc knob-in-hole
On to B3, for which the Kd in assay [1] turned out to be 190 nM; in assay [2], 4.3 nM; in assay [7], 6.1 nM; in [10], 75 nM. Moreover, the koff in assay [2] turned out to be 0.0086 s⁻¹; in assay [3] it was 0.0198 s⁻¹; in assay [14], 0.02 s⁻¹; in [17], 0.047 s⁻¹. Moreover, the kon in assay [2] came to 2e+06 M⁻¹ s⁻¹; in assay [5], 260000 M⁻¹ s⁻¹; in assay [8] it was 3.25e+06 M⁻¹ s⁻¹; in assay [13], 270000 M⁻¹ s⁻¹. Also, the ka2 in assay [4] is 6.2e-05 1/RUs; in assay [12], 28.7 1/RUs; in assay [15], 7.1 1/RUs. Besides, the values for the kd2 in assay [4], in [12] and in assay [15] were 0.0021 s⁻¹, 51.1 s⁻¹ and 120 s⁻¹, respectively.
